Reference: US20260241035A1, “FUNCTIONAL NUCLEIC ACID MOLECULE AND METHOD” (THE UNIVERSITY COURT OF THE UNIVERSITY OF EDINBURGH, priority 2022, published 2026)

Test system: GSC7 cells
Test: Nano-Glo Dual-Luciferase Reporter (Nanoglo DLR) assay of enhancer activity, fold change to mCMV
Type: cell-based, human
Conditions: expression fold change of the individual enhancer compared to mCMV
Description: We chose an arrayed library format, with 160 bp enhancer fragments individually cloned into separate plasmids and arrayed in 96 well plates. These 160 bp were synthesized as a single pool of oligos, then randomly cloned into the plasmid and isolated. 20 bp×2 were needed for PCR amplification of the pool and so a library of 200 bp fragments was synthesized (Twist Biosciences). To meet our oligo synthesis strategy, ChIP-seq peaks expressed by GSCs were merged into a single oligo. This oligonucleotide pool was PCR-amplified (using limited cycles to reduce bias and ‘jackpot’ products meaning products which are easier to amplify will overtake the oligonucleotide pool) and cloned into the expression vector by an efficient Golden Gate reaction. 4579 individual plasmids were then randomly picked, isolated and plated as an arrayed plasmid DNA library on 96 well plates (×48). The bacterial colony picking and production of plasmid minipreps were supported by the Edinburgh Genome Foundry (S. Rosser). This library was then screened using the optimised Nanoglo DLR assay (Nano-Glo Dual-Luciferase Reporter Assay, Promega) in 384 well format. Each plate was transiently transfected together with PGK-FFLuc in a 1:10 ratio into GSC7 cells. 2 days later a Nanoglo DLR assay was performed and assayed on a plate reader.
Cells were seeded in 384 well plates using a multidrop and transfected the following day using the CyBio Felix. Two days later the experiment was terminated with a Nanoglo DLR assay and all hits with a fold change to mCMV greater than 10 were Sanger sequenced and mapped back to the genome.
Cells were seeded at the required density. The following day the transfection was carried out. For this the Plus reagent and Lipofectamine LTX (Life Technologies, 15338030) were each diluted in half the volume of Opti-MEM I Reduced-Serum Medium (further referred to as Optimem) (Life Technologies, 31985062). Following this step, the Plus reagent/Optimem premix was added to all DNA samples followed by the Lipofectamine LTX/Optimem premix. The transfection mix was incubated for 5 min at room temperature and then carefully dropped on the cells. Generally, no media change was carried out. Cells were analysed two days following transfection.
This assay consists of two steps. The transfection was carried out using a normalisation plasmid PGK-Firefly-Luciferase (Promega, E5011) that was transfected in a 1/10 ratio with the plasmid of interest. First, the Firefly Luciferase activity is measured which allows to normalise to transfection efficiency. In a second step, the activity of Nanoluc is determined which is the readout of the plasmid of interest. Cells were washed 3× with PBS and 20 μl was left in the 96 well plate after the final wash (25 μl in 384 well). Oneglo buffer was added and the plate was shaken for 5 min at 480 rpm to allow cell lysis. 20 μl cell lysate in 96 well format or 25 μl cell lysate in 384 well format was then transferred into the corresponding opaque white plate and luminescence was measured at for 0.1 s per well using the Ensight Multimode Plate Reader. For the following Nanoluc reaction in a 96 well format 2 μl cell lysate was transferred into an opaque white plate containing 40 μl PBS, and 20 μl Stopglo buffer, supplemented with substrate, was added to each well. In a 384 well format 20 μl Stopglo buffer containing substrate were added on top of the undiluted cell lysate. The plate was shaken again for 5 min at 480 rpm to quench the firefly luciferase reaction and ensure good mixing. Nanoluc activity was measured for 0.1 s per well, again using Ensight Multimode Plate Reader.
Data obtained by the Nanoluc reaction was normalised to Firefly reaction to account for well-to-well variability of transfection efficiency. Normalised data were used to calculate the fold change to the empty vector control mCMV.

Molecule | Fold change (Median) [fold]
ID0876: enhancer fragment, SEQ ID NO: 8 (nucleic acid) DNA: GAGCAGGCAGTCATTTGGTTCCCTTCTCTGAATGCATTGGCTCTGATCCACGGCGCCTCAGGAAGTGAAAGGGAGCAGGCAGTGAGGCCAAGCCATGAATGTTGGGCCCTTTTCTTAGAAAACAAAGGGTTCACTTTAGGCTAGGAGGAAACATCCGGGG | 91.1
CSE061: clustered SOX dimer motif enhancer, SEQ ID NO: 48 (nucleic acid) DNA: GAACAGCACTTAAATATTAATAGCATCACTGGGAAAACACGACAGCTATTTCCCTGTTTTCTGCAGCTCAATGAAGAGTTGTTCAGTGCAGACCCCAGTGCTCTTGCCTCATGAATGGACGTGATTGTGGGGACATCATCTCCTACTAAGGCAAAACGTGACACTGAGAACAAAGGCTGGTTTTTAGCCTGATGTGATGAGCTCACCCCAGTGCCCATGTGGGGACTTTGAAGCTCGTCCAGGTGCCAGTTTTCTGTGTATATGACATTCTTGGTTGGGGAGGGTGTGGACTGGGCAGCAGGCTTT | 58.3
CSE075: clustered SOX dimer motif enhancer, SEQ ID NO: 49 (nucleic acid) DNA: ATAAGCCCTTTAAATTAAATCTTTATGCAGATTCTATTTTATACTCCAAACTTTTCATGGAGCCTTGTGTAATTCTGATGTGTAAACCAACAAACAGAGAGGCTCTGTGTATGGAGTAGCTGGTTTGGATACCAGCTGGCTTGGCTGTGCGCCTTTCTAATGGTAATGAAGTCACACAGCTGCTAGGACAATCAGCTGGAGTTCAGATTGTCACTAGCTAAATGGATATCCATTGACTAGCTTCTTATCCGGACTCATTAAAGTTTAGTATTGACAAATAGTGGCTGGAGGTTTACAACTAAGAGGCATGTAGAAATGAACTTGTTGACTATTTTTTCCCTATAGCTTTTGCTTTGTGATTCACAGAATGTCATTCATC | 58.1
CSE054: clustered SOX dimer motif enhancer, SEQ ID NO: 50 (nucleic acid) DNA: GCCAACAACTCATATAGTGGAGGCTTGAGCACACCATGCTTATTCCCAGAGTTCCAATGCTCTGCTTTTGAACCATTACCATGCCTTTCAGCAGCACTGTCAACAGAGCTCAGAGAAGGTCTTGAACTCCAGAGAATGAATGAGATATGCCAAATGAAGCATAATTACTTTATTGACGTCATTCAGCTTTCAACTCACATTTAATGAGAAAGCTTCTACTGCTTGAAACAGTGGGCCATTTGTAGCACATTATGCAAATGATAAGACTAATCTTTTGCATTATACATAAGAGCTGCTTATTGTGCATTAACTAATTTATCTGACTAGGAAGGGGCTATGAATGCTGATTTTTATTAAGCTCTTCATTAAGTGAAAATGTAGGCATGGCAAGTGCATAT | 65.7
CSE074: clustered SOX dimer motif enhancer, SEQ ID NO: 51 (nucleic acid) DNA: ATACATTTTAGCACCAAACACAATTTAATAACAGGGCACAGAGGCCGCAAAGCCTCCTGATTCTGTTCCATTACTAATTTATCAGGGGCTGAAAGCAACCAAACTTAGGATCCCAGGCAGACAATGGAGCCTTTGAGGGGCAAGGGAAGCATCATTTAAAAGGAAAGCATTACCATTCTAAAATAATGGCAAAGCACATGAACTGAGTGCTCTGAAAGAGAGCACTACAAAAAAGGTATTCTCAGCTTAAATGCCCCAAACACAAAAGCTTTTAGTTGGGACTTAGACGGGAAAAAGAAAATAGCTCCCAATAAATTGGTTTTACCAGTATCCTTTTGTGTGTGCTGGTGCCAAGGGGGCGAGGGTACAGGCAAAGCGTGATTTTCCAAAACCTAGCTGAATTATGTTTCTTCTTTAGAACAAAACCCAACATTTTGCTAATGAGGATAAAGACAGTAAAACTGATATTCCTGTGCTATTACTAACTTGG | 250.6
ID2339: enhancer fragment, SEQ ID NO: 9 (nucleic acid) DNA: GTCGGCGGAACTGAGTCTCCTTTGTGGAGCCCCTCATTTGCATGATAAACCCCGGGGACAAAGTGTGTTCTTGTTACTTGGACTGTTTCTTGGAAACTGCTGCTACCTGGAGCGAGTGAACACAGGGCAAGTATTCTCGCCCACAGCAACGTGTCATTGA | 79.6
CSE031: clustered SOX dimer motif enhancer, SEQ ID NO: 52 (nucleic acid) DNA: CAGAGGAGAGAGGAGGTCATTTGGGACCATTTACTCATGCGAGAGTCACTGCCCCATGCTAAGATTTCCCCTAAAAATAAAATGATAAGATAATAACTCATAATGCTCTCCCCAAATCAGTACCACACAGACCCCCCTCTTCTGTTTGCTCAGACCCCCGCTCTCCAGCACAAAGTCTTTATTGGTCTCCCTGCAGGGGTGAAAATAAAGGGGGTTTTGTTCTTCTCCTCCCCCTCCCCCCTCGAAGGGCTGAGTGAGTTTATCTGACACTGCAGCAGTCTTTGTAAACTGAGTGTCCCAGGATAAACGCTCCCTTAAGAGTCGCTTGGCCTGGGACAGAGGGACCCTCTCCAGAGGAGAATGGGGAGCTTGTTCCAATGGTCTTTTAATATGGGGGGCGGGGTGTCACCAAGGACAGGCCTCCAGCACACTCTCACAGAAGGGTCTCTGTCCTGAGGCTACAGTGGAGGGAATTCTTAAAGACACAGATGCTGAAAAGGGGGAAGGAATTTTTTTTTCCCCTAAGGGGAGGGGAGGGAGGTTAGGGCGGGAAGGAGAAGGGGGAGTGGCGAGGACTCCTCATTCCCCAGAACAATTCCAGTTACAACAAGGCGTCTCTAT | 249.3
CSE006: clustered SOX dimer motif enhancer, SEQ ID NO: 53 (nucleic acid) DNA: AGGAAGAAGCATGCTGGGTCATTTTTGCCTTGTTTCTAGCTGCATGAATTGAAAAGCCAGGCCCAGGTTCAATGCATCATTCTTGAAGCAGTGAACAAAATCCCTCTTTGTTCCCCAGTGAAACTTATCTCTGAAGAGCTGCACTACTTCCTGTGAGATATAGCCCTGCAGATGTGTCGTGGGAGACCCGCCCGGCTGCACTGCCTTCCATAAAAGTGCAAGAATGGGCACTTTGTACTGCTGGACTGAAAATGACACTCACTCTTCTGATCCCCACTGGGGTTACCAAGTGGGCAAAACTTCCTGCTTAGAGGAGGGGTCATAGACAGCAGGGGGAGTGTGTGATTTTGTTTTGTTCCTTTGTGAATTTGTTTAGCTATTTATAGAGCTAAAGGAGAAAGCAAACGGGCACAATGTAGCACAGTGTTTTTCAAAGTGTATTCCATGGAACCCTTTCGTGGGTTGCAGACCCCAGGGGTGGAGGCAGAGGATGGGGTGGTGACAGCAGCAGGTGCTGTCCAGGGCCTTCTGTCT | 524.3
ID1737: enhancer fragment, SEQ ID NO: 10 (nucleic acid) DNA: CAACGTTTTTGGCAGATGCAGCTCTTTCTGAACAGTAAGTCATTGTTGAGTGACATGAATAGGACGAGAGCTACAGAAAATGAAGGTTTCAAAAGATTGTCTAAAACAAAAGTCCTTTCAGTCCCGTATTCAGAGTT | 77.1
ID0663: enhancer fragment, SEQ ID NO: 11 (nucleic acid, listed as DNA, chemistry not given here) DNA: ATAAATTCCGATTAGCCAAGGAAGCTCTGAGTCTAAATACCAGCAAAGCTCAGCCCCTGCAAGTGGGGACGAATTATTTGAAAGGTCATCCTAGAGACACTGAACAAAGGGCCTCTAGCAGCT | 59.1
ID2706: enhancer fragment, SEQ ID NO: 12 (nucleic acid) DNA: CCAATGCCAAAGCAGTTTACATTTTACAGATGCCATGGCAACCGTCAGGAAGTTACCCTGTATGGTCTAAGAGGGGGAGGAACCCTCAGTTCCGGGAATTGCCCGCCCCTTTCCCGGAAACTCATGAATAATCCACCC | 57.2
ID3547: enhancer fragment, SEQ ID NO: 13 (nucleic acid) DNA: CGTTCCCCCTTAACAAAAGCCACCTCCTCCCTCCTGAAAGGCACCATTGGTCACCAAAACAAGTCCCCTTTGTCCTCCACCGCAGCTGGAGCCTGGGCCTTCCATCTCCTGGGGGCCAATAAAACCCCAGATCAGCCAATCCTCCCTCCCTGGCTCTGTCA | 53.2
